Measurements from patent US20180086829A1 (published 2018).

Assays:
[1] = molecular target: T1, human LILRB4 (human, UniProt Q8NHJ6 22-259, limits assumed); test: ELISA; upper end of the range, tied to #216-1 by Table 1
T1 construct: also called leukocyte immunoglobulin-like receptor subfamily B member 4

[2] = molecular target: T1, human LILRB4; test: ELISA
[3] = molecular target: T1, human LILRB4; test: ELISA; lower end of the range, tied to #214 by Table 1

B1: anti-LILRB4 rabbit monoclonal antibody #216-1 (antibody, V domains shown)
VH: EQSVEESGGGLVKPGASLTLTCIASGFSFSSSYVMCWVRQAPGKGLELIACIHAGGSGSTYYASWAKGRFTISKTSSTTVTLQMTSLTAADTATYFCARYNYHFYYIGDYSDLWGPGTLVTVSS
VL: ELVMTQTPSSVSAAVGGTVTIKCQASEDIDSYLAWYQQKPGQRPKVLIYRASTLASGVPSRFKGSGSGTEFTLTISGLECDDAATYYCQQGWSNDVGSNAFGGGTKVEIK
notes: Rabbit monoclonal antibody
EC50 [1]: 0.3 nM

B2: anti-LILRB4 rabbit monoclonal antibody #78 (antibody, V domains shown)
VH: QSLQESGGRLVTPGTPLTLTCTVSGIDLSVYLMSWVRQSPGKGLEYIGFINSAGITAYATWAKGRFIISKTSTTVDLKVTSPTTEDTATYFCARNWIRLDLWGQGTLVTISS
VL: ELVLTQTPASVSAAVGGTVTISCQSSESIYKNYLSWFQQKPGQPPKLLIYETSKLASGVPSRFSGSGSGTQFTLTISDVQCDDAATYYCLGGYTNGRDTIFGGGTELEIK
notes: Rabbit monoclonal antibody; also called mAb 78; bin 1
EC50 [2]: 0.0808 nM

B3: anti-LILRB4 rabbit monoclonal antibody #214 (antibody, V domains shown)
VH: QSVKESGGRLVTPGTPLTLTCTVSGFSLSSYWMHWVRQAPGKGLEWVGVVSVSGNFYYATWAKGRFTISKTSTTVDLKITSPTIEDTAFYFCTMSFALWGQGTLVTISS
VL: ELVMTQTASPVSAAVGGTVTINCQSSQSVYSNNNLGWLKQKPGQPPKELIYYASTLASGVPSRFKGSGSGTQFTLTISDLECDDAATYYCVGGYGCSSADCSVFGGGTEVEIK
notes: Rabbit monoclonal antibody
EC50 [3]: 0.05 nM
